Results reported in publication PMC3828196 (PLoS ONE, 2013).
Entries after “also recorded” stand apart in the source; their conditions may differ. Read-outs that look alike come from different tables or passages of the source.

Legend:
EcDsbA = target: T1, EcDsbA (Escherichia coli, UniProt P0AEG4); experiment: biochemical; format: binding, E. coli; conditions: ITC; range stated for KpDsbA and EcDsbA with […] and […] together; read-out: Kd (range over both peptides and both DsbAs)
T1 construct: lacking the periplasmic leader signal were purified as described for KpDsbA; His6-TEV leader (inferred: same procedure as KpDsbA) (N, cleaved yes); made in house; host or cells: E. coli BL21(DE3)pLys (inferred from 'as described for KpDsbA')
Description: (§1) Amidation and acetylation ensure that there are no charges on the peptide termini, as these are not present in the native DsbB loop sequence. Binding affinity was measured using a MicroCal™ Auto-iTC200 from (GE Healthcare, USA) at 25 °C. The sample cell was loaded with 200 μL of 100 μM KpDsbA or EcDsbA in 25 mM HEPES, 50 mM NaCl, pH 7.4, and DMSO 0.8 %. The peptide (3 mM) diluted in the same buffer was titrated with an initial injection of 0.5 μL into DsbA, followed by 19 consecutive injections (2.0 μL) offset by 180 s, while the solution was constantly stirred (1000 rpm). Data were fitted to a single-site binding model using MicroCal™ Origin 7.0 software (Origin 7 SR4 v7.0552).

KpDsbA = experiment: ITC binding of DsbB-derived peptides to KpDsbA; design: species or system K. pneumoniae
Description: as §1, with “v7.0552). Experiments were conducted in triplicate and affinity and thermodynamic parameters are reported as means and standard deviations (Table 4).” for “v7.0552).”

[1] = EcDsbA, cited from earlier work
Description: The past 5 years has seen the characterization of DsbA enzymes from many other bacteria including DsbAs with varying degrees of sequence identity to EcDsbA such as Neisseria meningitidis DsbA1 (NmDsbA1, 23% identity), Pseudomonas aerugin ... || EcDsbA and SeDsbA share 86 % sequence identity and both have been characterized previously. […] Both are similarly oxidizing enzymes: the redox potentials of EcDsbA and SeDsbA are -122 and -126 mV, respectively, whereas the range for all DsbAs is -80 to -163 mV (Table 1 ). In b ... || (+ 1 further places)

[2] = test system: E. coli dsbA- null (JCB817); experiment: Complementation swarming assay, dsbA- null strain JCB817; conditions: pBAD33, arabinose-induced; soft M63 minimal agar, 37 °C, 3-7 h; biological triplicates
Description: The ability of KpDsbA to rescue non-motile E. coli dsbA ^- null (JCB817) and dsbA ^-/dsbB ^- double-null (JCB818) strains was assessed in a cell-swarming assay as described previously [16]. The mature KpDsbA coding sequence was cloned into pBAD33 under an arabinose inducible promotor with the EcDsbA periplasmic signal sequence. A wild-type EcDsbA cloned into pBAD33 vector was used as a positive control. Non-motile E. coli dsbA ^- deficient (JCB817) or dsbA ^- / dsbB ^- double-mutant (JCB818) [3] cells (2x10^6) transformed with a KpDsbA or EcDsbA pBAD33 inducible vector were spotted onto the center of a soft M63 minimal agar plate containing 40 mg/mL of each amino acid (except L-cysteine). Plates were incubated at 37 °C and motility of cells monitored using a Molecular Imager® Gel Doc™ system from BIO-RAD (CA 94547, USA) after 3-7 h. Complementation experiments were repeated as biological triplicates.

[3] = In vitro peptide dithiol oxidation (europium fluorescence); format: biochemical; conditions: samples lacking EcDsbB, DsbA plus peptide; pH 5.5; time-resolved fluorescence
Description: A peptide ([…]) with a 1,4,7,10-tetraazacyclododecane-1,4,7,10-tetraacetic acid (DOTA) group amide-coupled to the N-terminus, and a methylcoumarin amide-coupled to the ε-amino group of the C-terminal lysine, was purchased from AnaSpec (Fremont, CA). Lyophilized peptide was re-suspended in 100 mM imidazole, pH 6, at a concentration of 2 mM. Europium trifluoromethanesulfonate (Sigma Aldrich, Australia) solution (100 mM) was added to the peptide at a molar ratio of 2:1 and incubated for 5 min at room temperature, to allow europium chelation. The peptide solution was then immediately aliquoted, flash frozen in liquid nitrogen and stored at -80°C. An increase in fluorescence occurs upon oxidation of the peptide cysteines to form a disulfide. Thus, fluorescence can be used to monitor the capacity of DsbA enzymes to catalyse dithiol oxidation.
Assays were conducted using a Synergy H1 multimode plate reader (BioTek, USA) with the excitation wavelength set to 340 nm and emission to 615 nm. A 150 μs delay before reading and 100 μs reading time were used for time-resolved fluorescence. The assay was performed in a white 384-well plate (Perkin Elmer OptiPlate-384, Part #: 6007290). The buffer consisted of 50 mM MES, 50 mM NaCl and 2 mM EDTA at pH 5.5. The reaction consisted of a 50 μL solution in each well, containing 160 nM EcDsbA, KpDsbA or SeDsbA, 1.6 μM EcDsbB (crude membrane extracts, containing ubiquinone) and 8 μM peptide substrate added last to initiate the reaction. Samples containing buffer and DsbA or buffer and peptide were used as controls. Data were measured for three replicates and are presented as mean values, with the standard error of the mean indicated by error bars.

insulin [4] = conditions: cited from earlier work
insulin [5] = experiment: Insulin disulfide reductase activity; format: biochemical; conditions: 10 μM enzyme, 0.33 mM DTT, 2 mM EDTA, 100 mM phosphate pH 7.0, 0.131 mM insulin; OD650nm turbidity; three repeats
Description: Under mild reducing conditions, DsbA proteins can reduce the intermolecular disulfide bonds formed between insulin chains A and B [3]. The rate of disulfide bond reduction can be spectroscopically followed at OD650nm by an increase in turbidity resulting from production of the insoluble insulin chain B [20]. Samples were prepared in 1 cm cuvettes containing 10 μM of protein (KpDsbA, EcDsbA or EcDsbC), 0.33 mM DTT and 2 mM EDTA in 100 mM NaH2PO4 / Na2HPO4 titrated to pH 7.0. Catalysis was initiated by the addition of 0.131 mM insulin (I0516, Sigma-Aldrich, Australia) to the sample mixture. The assay was repeated three times and data were plotted showing standard deviations.

Molecule | Kd (EcDsbA) [µM] | Kd (KpDsbA; ITC (Auto-iTC200), cell 100 μM KpDsbA, peptide 3 mM, 25 mM HEPES, 50 mM NaCl, pH 7.4, DMSO 0.8 %, 25 °C in method, 20 °C in table footnote, single-site model, apparent Kd, mean ± SD, three independent experiments, read-out: Kd) [µM] | Kd (KpDsbA; ITC, range stated for KpDsbA and EcDsbA with PSPFATCD and PSPFQTCD together, read-out: Kd (range over both peptides and both DsbAs)) [µM] | E°’ (redox potential) ([1]; Table 1, ref [6], [14]) [mV] | Tm oxidized ([1]; Table 1, ref [6], [14]) [K] | Tm reduced ([1]; Table 1, ref [6], [14]) [K] | pKa “Cys30” ([1]; Table 1 and comparison, ref [6], [14]) | pKa of nucleophilic cysteine ([1]; introduction, ref [9]) | Tm oxidized ([1]; with spread, ref [7]) [K] | Tm reduced ([1]; with spread, ref [7]) [K] | pKa of nucleophilic cysteine ([1]; ref [7]) | redox potential ([1]; ref [9]) [mV] | Tm oxidized ([1]; ref [13]) [K] | Tm reduced ([1]; ref [13]) [K] | restoration of motility (swarming) [2] | dithiol oxidation signal without EcDsbB [3] | insulin reductase activity (insulin [4]) | insulin disulfide reductase activity (insulin [5])
CC(=O)N1CCC[C@H]1C(=O)N[C@@H](CO)C(=O)N1CCC[C@H]1C(=O)N[C@@H](Cc1ccccc1)C(=O)N[C@@H](CCC(N)=O)C(=O)N[C@H](C(=O)N[C@@H](CS)C(=O)N[C@@H](CC(=O)O)C(N)=O)[C@@H](C)O | 11 to 18 | 16.7 ± 0.6 | 11 to 18 | – | – | – | – | – | – | – | – | – | – | – | – | – | – | –
EcDsbA: Escherichia coli DsbA (CAA56736) (protein) AQYEDGKQYTTLEKPVAGAPQVLEFFSFFCPHCYQFEEVLHISDNVKKKLPEGVKMTKYHVNFMGGDLGKDLTQAWAVAMALGVEDKVTVPLFEGVQKTQTIRSASDIRDVFINAGIKGEEYDAAWNSFVVKSLVAQQEKAAADVQLRGVPAMFVNGKYQLNPQGMDTSNMDVFVQQYADTVKYLSEKK | – | – | – | -122 | 341 | 350 | 3.3 | 3.3 | 341.7 ± 0.2 | 350.9 ± 0.2 | 3.3 | -122 | 341 | 350 | can rescue the swarming | no increase in signal | weak disulfide reductants; also recorded: weak insulin reductase activity | weak insulin reductase activity
